Key:
[1] = target: h-PVRIG-his (his-tagged human PVRIG recombinant protein) (human) (UniProt Q6DKI7); assay: ELISA, human PVRIG recombinant protein
[2] = target: h-PVRIG-mIgG2a Fc (mouse IgG2a Fc-tagged human PVRIG recombinant protein) (human; mouse) (UniProt Q6DKI7); assay: competition ELISA, coated h-PVRIG-mIgG2a Fc, his-tagged PVRL2 as the ligand that is blocked
[3] = target: h-PVRIG-his (his-tagged human PVRIG recombinant protein) (human) (UniProt Q6DKI7); assay: ELISA, plate coated with PVRIG-his
[4] = target: h-PVRIG-his (his-tagged human PVRIG recombinant protein) (human) (UniProt Q6DKI7); assay: Fortebio BLI, antibody on Protein A sensor, his-tagged human PVRIG 64-4 nM, 1:1 fit
[5] = target: h-PVRIG-mIgG2a Fc (mouse IgG2a Fc-tagged human PVRIG recombinant protein) (human; mouse) (UniProt Q6DKI7); assay: blocking ELISA (method of Example 2-3), human PVRL2 as the ligand that is blocked

Chain of h-PVRIG-his (his-tagged human PVRIG recombinant protein) (human) (Q6DKI7 41-171 limits assumed): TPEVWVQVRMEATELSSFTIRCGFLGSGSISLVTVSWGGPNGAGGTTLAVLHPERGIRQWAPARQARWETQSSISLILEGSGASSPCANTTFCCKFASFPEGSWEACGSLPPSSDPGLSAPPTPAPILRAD
Chain of h-PVRIG-mIgG2a Fc (mouse IgG2a Fc-tagged human PVRIG recombinant protein) (human; mouse) (Q6DKI7 41-171 limits assumed): as above

EC50 [1]: 1.41 nM
IC50 [2]: 1.16 nM
EC50 [3]: 2.86 nM
Kd [4]: 0.219 nM
koff [4]: 1.61e-05 s⁻¹
kon [4]: 737000 M⁻¹ s⁻¹
IC50 [5]: 0.964 nM
B1: Tab5 (antibody, from another filing, V domains shown)
VH: EVQLVESGGGVVKPGGSLRLSCAASGFTFGTSSMNWVRQAPGKGLEWVAVISFDGTEIHYADSVKGRFTISRDNSKSTVFLQMNSLRPDDTALYYCAKGSGNIYFYSGMDVWGQGTTVTVSS
VL: DIQMTQSPSTLSASVGDRVTITCRAGQSISGWLAWFQQKPGKAPNLLIYETSTLESGVPSRFSGSGSGTEYTLTISSLQPDDFATYYCQQYYSYPLTFGQGTKVEIKR

— patent EP4681729A1
